Measured values taken from patent US20210403552A1 (SHANGHAI GENBASE BIOTECHNOLOGY, published 2021).

Columns and labels:
human CLDN18.1 [1] = molecular target: T1, human CLDN18.1 (human, UniProt P56856 1-261); assay: imaging cytometry (% fluorescent cells), CHOS-hCLDN18.1 cells
T1 construct: over-expressed on HEK293T or CHOS cells by lentivirus; also called hCLDN18.1
Excerpt: (§1) HEK293T-hCLDN18.2 and OCUM-1-hCLDN18.2 expressing human CLDN18.2 (hCLDN18.2), or HEK293T-mCLDN18.2 expressing mouse CLDN18.2 (mCLDN18.2) and the corresponding negative control cell line HEK293T were used; or HEK293T-hCLDN18.1 and CHOS-hCLDN18.1 expressing human CLDN18.1 (hCLDN18.1) were used. DyLight488 goat anti-mouse IgG (Abcam, Catalog No. ab97015) or DyLight488 goat anti-human IgG (Abcam, Catalog No. ab97003) was used as secondary antibody. Binding curves were generated by using the following method.
(§2) 10,000 cells were plated in 100 μL of DMEM containing 10% FBS per well in a flat-bottomed 96-well plate. After the cells adhered or were settled to the bottom of the wells overnight, the supernatant was removed on the next day. […] 100 μL of PBS was added to each well, and then reading was carried out on the cytometer.
(§3) A full-field scanning cytometer (Nexcelom, Celigo® Image Cytometer) was used to measure the readings of the experimental plate. […] The cells that bound the antibody were counted in the image obtained from the green fluorescent channel under the parameters set in accordance with the morphology and fluorescence intensity of the fluorescently labeled cells, and the adhered cells were counted in the image obtained from the bright field channel under the parameters set in accordance with the morphology of the cells.

human CLDN18.2 [2] = molecular target: T2, human CLDN18.2 (human); assay: imaging cytometry (% fluorescent cells), OCUM1-hCLDN18.2 cells
T2 construct: over-expressed on HEK293T or OCUM-1 cells by lentivirus; KATO-III and NUGC4 gastric cancer cells express it naturally; also called hCLDN18.2; hCLDNA18.2
Excerpt: as §1
(§4) 10,000 cells were plated in 100 μL of DMEM containing 10% FBS per well in a flat-bottomed 96-well plate. After the cells adhered or were settled to the bottom of the wells overnight, the supernatant was removed on the next day. 3-Fold gradient dilution of antibody was performed by diluting 1/3 of the total volume (i.e., 100 μL) in 200 μL of DMEM. 100 μL of the diluted antibody (the supernatants of fused clones or subclones was used in the screening) was added to each well of the cell plate, 100 μL of DMEM was added to the corresponding negative control well, and incubation was carried out for 1 hour at room temperature. After removing the supernatant, 100 μL of secondary antibody (5 μg/mL, diluted in DMEM) was added to each well, and incubated at room temperature for 0.5 hours. The supernatant was removed after staining, followed by washing with PBS once. 100 μL of PBS was added to each well, and then reading was carried out on the cytometer.
(§5) A full-field scanning cytometer (Nexcelom, Celigo® Image Cytometer) was used to measure the readings of the experimental plate. During the measurement, high-speed scanning imaging of the cells in the well was simultaneously performed in the green fluorescent channel corresponding to the secondary antibody and in the bright field channel. The cells that bound the antibody were counted in the image obtained from the green fluorescent channel under the parameters set in accordance with the morphology and fluorescence intensity of the fluorescently labeled cells, and the adhered cells were counted in the image obtained from the bright field channel under the parameters set in accordance with the morphology of the cells.

human CLDN18.2 [3] = molecular target: T2, human CLDN18.2; assay: imaging cytometry (% fluorescent cells), HEK293-hCLDN18.2 cells
Excerpt: as §1, §4, §5

mouse CLDN18.2 = molecular target: T3, mouse CLDN18.2 (mouse, UniProt P56857 10-264); assay: imaging cytometry (% fluorescent cells), HEK293-mCLDN18.2 cells
T3 construct: over-expressed on HEK293T cells by lentivirus; also called mCLDN18.2; murine CLDN18.2
T3 chain: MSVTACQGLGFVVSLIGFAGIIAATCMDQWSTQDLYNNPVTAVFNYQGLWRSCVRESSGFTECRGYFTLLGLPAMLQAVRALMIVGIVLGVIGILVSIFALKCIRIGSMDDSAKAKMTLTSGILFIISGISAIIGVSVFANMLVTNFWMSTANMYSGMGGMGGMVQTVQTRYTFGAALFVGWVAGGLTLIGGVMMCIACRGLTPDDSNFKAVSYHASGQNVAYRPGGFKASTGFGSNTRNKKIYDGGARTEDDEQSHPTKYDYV
Excerpt: as §1, §4, §5

human CLDN18.1 [4] = molecular target: T1, human CLDN18.1; assay: imaging cytometry (% fluorescent cells), HEK293-hCLDN18.1 cells
Excerpt: as §1, §2, §3

T1 sequence (P56856 whole entry): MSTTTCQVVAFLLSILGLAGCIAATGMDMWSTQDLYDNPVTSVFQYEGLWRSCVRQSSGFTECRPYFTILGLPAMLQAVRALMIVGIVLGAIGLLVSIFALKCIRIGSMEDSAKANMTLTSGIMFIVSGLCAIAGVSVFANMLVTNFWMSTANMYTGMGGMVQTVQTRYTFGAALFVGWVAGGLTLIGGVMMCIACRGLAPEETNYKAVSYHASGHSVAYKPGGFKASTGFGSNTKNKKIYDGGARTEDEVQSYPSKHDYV

B1: 1D10 (antibody, V domains shown)
VH: QVQLQQPGAELVKPGASVKLSCKASGYTFTSYWMHWVKQRPGQGLEWIGMIYPNSGSINYNEKFKNKATLTVDKSSSTAYMQLSSLTSEDSAVYFCSVYFDYWGQGTTLTVSS
VL: DIQGTQSPSSLSASLGERVSLTCRASQDIGSSLNWLQQEPDGTIKRLIYATSSLDSGVPKRFSVSRSGSDYSLTISSLESEDFVDYYCLQYASSPPTFGGGTKLEIK
notes: murine monoclonal antibody purified from hybridoma culture supernatant; also called ID10
B1 showed an EC50 (human CLDN18.1 [1]) of 0.092 µg/mL, an EC50 (human CLDN18.2 [2]) of 0.026 µg/mL and an EC50 (human CLDN18.2 [3]) of 0.018 µg/mL. The EC50 (mouse CLDN18.2) was 0.691 µg/mL and the EC50 (human CLDN18.1 [4]) was 0.041 µg/mL.
